Where no end group is shown, it is not given here.
Tests used:
[1] = target: T1, biotinylated 15-mer peptide 19 of the CDH17 ECD peptide scan (human, also: biotin label, position not given here); assay: titration ELISA on biotinylated peptide captured on streptavidin plates
T1 peptide: QVAALDANGIIVEGP
Description: (§1) For the ELISA, 1 μl of each biotinylated peptide plus 99 μl of peptide coating buffer (40% DMSO and 0.05% Tween20 in PBS) was added to a streptavidin-coated microtiter plate well. The plate was incubated overnight at 4° C. without shaking. The plate was then washed 4 times with 300 μl washing buffer (PBS with 0.05% Tween20). 200 μl blocking buffer (PBS with 400 μM biotin and 20% sucrose) was added to each well and the plate incubated for 30 min at room temperature without shaking. After 3 times washing with washing buffer, 300 μl of SuperBlock T20 (TBS) Blocking Buffer (Thermo Scientific, #37536) was applied per well and incubated at room temperature for 1 hour. […]

[2] = target: T2, biotinylated 15-mer peptide 18 of the CDH17 ECD peptide scan (human, also: biotin label, position not given here); assay: as above
T2 peptide: THNLQVAALDANGII
Description: as §1

[3] = target: T3, biotinylated 15-mer peptide 20 of the CDH17 ECD peptide scan (human, also: biotin label, position not given here); assay: as above
T3 peptide: LDANGIIVEGPVPIT
Description: as §1

Peptide 1 = target: T4, Peptide 1 (also: biotin label, position not given here); assay: titration ELISA, antibody 1500 to 0.157 ng/ml, biotinylated peptide on streptavidin-coated plate
T4 construct: also called Original 7-mer peptide; LDANGII
T4 peptide: LDANGII

Peptide 7 = target: T5, Peptide 7 (also: biotin label, position not given here); assay: as above
T5 construct: LDANGII with the seventh residue I changed to A; also called LDANGIA
T5 peptide: LDANGIA

Peptide 2 = target: T6, Peptide 2 (also: biotin label, position not given here); assay: as above
T6 construct: LDANGII with the first residue L changed to A; also called ADANGII
T6 peptide: ADANGII

Peptide 8 = target: T7, Peptide 8 (also: biotin label, position not given here); assay: as above
T7 construct: LDANGII with the third residue A changed to G; also called LDGNGII
T7 peptide: LDGNGII

[4] = target: T8, human CDH17-mGFP fusion protein overexpressed on HEK293T cells (clone G11) (human, UniProt Q12864 23-832); assay: KinExA, cell-based, HEK293T human CDH17mGFP G11 (same value as r12)
T8 construct: also called HEK293T CDH17mGFP Clone G11; HEK293T Human CDH17mGFP G11; not shown: mGFP fluorescent protein fused to CDH17
Description: (§2) The cell-based antibody affinity (KD) of the anti-CDH17 antibodies was measured by KinExA 4000 (Sapidyne Instrument, Boise, Idaho). Briefly, HEK293T overexpressing CDH17-fluorescent protein fusion (i.e., human CDH17-mGFP, monkey CDH17-mGFP, mouse CDH17-mGFP or rat CDH17-mGFP) were detached with Versene and equilibrated with either 50 pM, 200 pM, 20 nM, or 50 nM antibody in 2% FBS/DMEM at 4° C. overnight. The cell concentration started at 5×10⁶ cells/mL or 1×10⁷ cells/mL and 2-fold serial dilutions were performed up to 10 points. The next day, the cells were centrifuged at 1500 rpm for 10 min and the supernatants were saved. […] In contrast, while the humanized anti-CDH17 antibody, 07-0653-h43, fails to bind mouse CDH17 protein, it binds rat CDH17 protein equally well as to human and monkey CDH17 protein such that its Kp is less than about 1 nM for human, monkey and rat CDH17 proteins with overlapping 95% confidence interval values.

[5] = target: T9, human cadherin-17 (CDH17), endogenously expressed on human cancer cell lines (LS513, SNU-C1, PaTu8988s, … (human, UniProt Q12864 23-832)); assay: flow cytometry (iQue) on SNUC1 cells, 0.2 µg Ab
T9 construct: also called LS513 (Colon, CDH17+); HPAF2

[6] = target: T10, mouse CDH17-mGFP fusion protein overexpressed on HEK293T cells (mouse, UniProt Q9R100 26-827); assay: flow cytometry (BD C6) on HEK293T Mouse CDH17 mGFP cells
T10 construct: also called HEK293T Mouse CDH17mGFP mass; not shown: mGFP fluorescent protein
Description: To determine relative antigen binding strengths of the humanized antibodies, FACS assays were carried out as essentially described in Example 1. […] Using a BD Biosciences Accuri™ C6 Flow Cytometer (San Jose, CA), antibody binding based on Alexa Fluor® 647 fluorescence was measured in the FL4-H channel and fusion protein overexpression based on GFP fluorescence was measured in the FL1-H channel.

[7] = target: T8, human CDH17-mGFP fusion protein …; assay: flow cytometry (iQue) on HEK293T CDH17 mGFP clone G11 (human), 1 µg Ab
[8] = target: T9, human cadherin-17 (CDH17), endogenously …; assay: flow cytometry (iQue) on PATU8988S cells, 1 µg Ab
[9] = target: T11, rat CDH17 fused to moxGFP, overexpressed on HEK293T cells (rat, UniProt P55281 22-827); assay: flow cytometry on HEK293T rat CDH17mGFP mass population, 20 µg/ml
T11 construct: whole, on cells; also called HEK293T Rat CDH17mGFP mass pop; rat CDH17-moxGFP

[10] = target: T8, human CDH17-mGFP fusion protein …; assay: KinExA, cell-based, HEK293T CDH17mGFP clone G11
Description: as §2

[11] = target: T9, human cadherin-17 (CDH17), endogenously …; assay: flow cytometry (iQue) on PATU8988S cells, 0.2 µg Ab

T10 sequence (Q9R100 26-827): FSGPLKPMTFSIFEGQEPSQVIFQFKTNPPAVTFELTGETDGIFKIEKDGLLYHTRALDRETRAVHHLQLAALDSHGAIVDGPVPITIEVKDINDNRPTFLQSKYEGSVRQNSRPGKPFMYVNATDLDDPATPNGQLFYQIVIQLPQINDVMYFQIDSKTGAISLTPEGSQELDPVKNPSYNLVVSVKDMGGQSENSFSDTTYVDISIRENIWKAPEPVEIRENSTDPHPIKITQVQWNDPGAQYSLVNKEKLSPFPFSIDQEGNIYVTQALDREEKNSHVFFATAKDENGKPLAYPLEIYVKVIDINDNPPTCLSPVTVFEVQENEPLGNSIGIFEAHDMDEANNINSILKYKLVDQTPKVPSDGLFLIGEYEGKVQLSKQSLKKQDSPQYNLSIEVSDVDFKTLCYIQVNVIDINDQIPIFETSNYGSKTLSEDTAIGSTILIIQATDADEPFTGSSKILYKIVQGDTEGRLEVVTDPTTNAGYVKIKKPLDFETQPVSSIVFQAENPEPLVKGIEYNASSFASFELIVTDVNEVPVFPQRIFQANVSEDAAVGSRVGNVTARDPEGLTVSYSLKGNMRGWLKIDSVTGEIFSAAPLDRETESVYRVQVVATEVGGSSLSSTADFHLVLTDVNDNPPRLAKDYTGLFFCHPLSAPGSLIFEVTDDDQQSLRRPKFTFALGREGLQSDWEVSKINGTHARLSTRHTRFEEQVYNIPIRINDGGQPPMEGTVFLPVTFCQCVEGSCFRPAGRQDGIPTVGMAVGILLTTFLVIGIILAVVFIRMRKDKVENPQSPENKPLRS
T11 sequence (P55281 22-827): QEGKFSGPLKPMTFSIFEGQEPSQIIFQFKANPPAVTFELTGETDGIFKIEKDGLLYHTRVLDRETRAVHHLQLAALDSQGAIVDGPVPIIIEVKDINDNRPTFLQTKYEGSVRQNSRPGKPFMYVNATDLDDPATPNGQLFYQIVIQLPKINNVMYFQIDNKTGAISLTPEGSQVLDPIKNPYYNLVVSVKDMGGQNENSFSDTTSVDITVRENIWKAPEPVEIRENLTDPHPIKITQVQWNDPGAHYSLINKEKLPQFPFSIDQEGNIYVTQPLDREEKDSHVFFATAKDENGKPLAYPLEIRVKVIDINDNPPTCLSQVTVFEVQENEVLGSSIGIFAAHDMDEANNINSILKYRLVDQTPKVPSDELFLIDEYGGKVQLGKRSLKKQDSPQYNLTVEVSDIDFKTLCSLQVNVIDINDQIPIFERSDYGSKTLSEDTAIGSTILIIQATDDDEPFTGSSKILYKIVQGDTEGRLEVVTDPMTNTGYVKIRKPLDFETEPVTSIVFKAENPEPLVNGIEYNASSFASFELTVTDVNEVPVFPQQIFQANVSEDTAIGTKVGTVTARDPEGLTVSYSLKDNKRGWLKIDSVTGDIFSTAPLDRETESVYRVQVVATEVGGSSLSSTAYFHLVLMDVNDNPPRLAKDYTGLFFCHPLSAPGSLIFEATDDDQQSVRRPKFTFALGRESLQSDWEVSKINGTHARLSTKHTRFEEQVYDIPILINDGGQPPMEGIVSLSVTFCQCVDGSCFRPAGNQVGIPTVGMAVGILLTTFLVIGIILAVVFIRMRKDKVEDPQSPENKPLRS

binding result [1]: binds
binding result [2]: binds
binding result [3]: binds
EC50 (Peptide 1): 0.16 nM
EC50 (Peptide 7): 0.117 nM
EC50 (Peptide 2): 0.126 nM
EC50 (Peptide 8): 2.98 nM
Kd [4]: 0.152 nM
Antibody Binding Activity by Flow iQue [5]: 163000
binding result [6]: no binding (tested: 1 µg)
Antibody Binding Activity by Flow iQue [7]: 172000
Antibody Binding Activity by Flow iQue [8]: 101000
Cross Reactivity by Flow [9]: 2160
Kd [10]: 0.152 nM
Antibody Binding Activity by Flow iQue [11]: 102000
B1: humanized anti-CDH17 antibody 07-0663-h7 (antibody, human IgG1, kappa, V domains shown)
VH: QVQLVQSGAEVKKPGSSVKISCKVSGYTFTDHTIHWMRQAPGQGLEWIGYIFPRDDIVVYAQKFQGRATLTADKSTSTAYMELSSLRSEDTAVYYCARPPYYYSRNFYFDYWGQGTTLTVSS
VL: DIQMTQSPSSLSASVGDRVTITCRVSSIISSSKLHWYQQKPGKAPKPLIYGTSTLASGVPSRFSGSGSGTDYTLTISSLQPEDFATYYCQQWSNYPFTFGQGTKLEIKR
notes: Human IgG1 / kappa

— patent publication US20250051437A1 (University of California, published 2025)
